Assays:
[1] = tested on: Rat aortic SMCs; assay: Fibronectin and collagen I deposition in cultured SMCs (immunostaining); type: cell-based; settings: 500 nM peptide, 3 days, serum containing media
Description: FIGS. 1A-1I depict the effect of pUR4 on fibronectin and collagen I deposition in smooth muscle cells (SMCs). Rat aortic SMCs were grown in serum containing media in the absence (FIGS. 1A-1C) or presence of 500 nM pUR4 (FIGS. 1D-1F) or control III-11C (FIGS. 1G-1I) peptides for 3 days. Cell were fixed, and then incubated with a polyclonal antibody to fibronectin (FIGS. 1A, 1D, and 1G) or collagen I (FIGS. 1B, 1E, and 1H). Bar, 20 μm.
Rat aortic smooth muscle cells (RASM) were obtained from Cell Applications (San Diego, Calif.) and maintained in serum containing media (Cell Applications). SMC were used at passages 4-6.
Previous data has shown that fibronectin regulates the deposition of other proteins into the ECM, including type I collagen (Sottile et al., “Fibronectin Polymerization Regulates the Composition and Stability of Extracellular Matrix Fibrils and Cell-Matrix Adhesions,” Mol. Biol. Cell. 13:3546-3559 (2002), which is hereby incorporated by reference in its entirety). […] However, there was a trend toward decreased fibronectin and collagen I mRNA in the carotid artery of animals treated with pUR4 in comparison with control peptide-treated animals (Table 3).

[2] = tested on: laminin; assay: ELISA binding of pUR4 to ECM proteins: laminin; settings: plates coated 10 μg/mL, FIG. 7
Description: FIG. 7 is a graph depicting the binding of pUR4 to ECM Proteins. 96-well plates were coated with 10 μg/mL type I collagen (COL), denatured type I collagen (dCOL), fibronectin (FN), laminin (LN), vitronectin (VN), or fibrinogen (FG) at 4° C. overnight. pUR4 was added to the wells and serially diluted. Bound pUR4 was detected as described herein. Measurements were done at 405 nm on a Wallac 1420 multilabel counter. Data represents the average of duplicate determinations, and the error bars the range.
96-well tissue culture plates were coated with 10 μg/mL type I collagen, fibronectin, laminin, fibrinogen, or vitronectin overnight at 4° C. Denatured collagens were generated as described (George et al., “Fibronectins are Essential for Heart and Blood Vessel Morphogenesis but are Dispensable for Initial Specification of Precursor Cells,” Blood 90:3073-3081 (1997), which is hereby incorporated by reference in its entirety). Plates were blocked with 1% bovine serum albumin (BSA) in Tris buffered saline (TBS) for 1 hour, then washed with TBS. pUR4 was serially diluted into coated wells, then incubated at room temperature for 90 min. Wells were washed with TBS containing 0.1% Tween 20. […] After washing, peroxidase activity was quantified by using 2,2′-azino-bis-(3-ethylbenthiazoline-[…]). […]

[3] = tested on: Rat aortic SMCs; assay: qRT-PCR of fibronectin and collagen I in SMC; type: cell-based; settings: 500 nM, 24 h; PBS control set equal to 1; average of duplicates ± range
Description: mRNA was isolated from RASMs 24 hours after incubation with 500 nM pUR4 or III-11C control peptides using RNAzol as per the manufacturer's instructions (Invitrogen). cDNA was prepared using a Superscript First Strand cDNA kit as per the manufacturer's instructions (Invitrogen). Mouse carotid arteries were harvested and frozen in liquid nitrogen. RNA was isolated using Trizol and purified using a QIAgen RNeasy Micro Kit. RNA integrity was examined with an Agilent 2100 Bioanalyser using RNA6000 NanoAssay (Agilent Technology). Whole transcriptome amplification was performed using Qiagen's QuantiTect Whole Transcriptome Amplification Kit. Quantitative RT-PCR analyses were performed using ABI Prism 7900HT sequence detection system (Applied Biosystems). The qRT-PCR primers for 3 mouse genes were obtained from ABI: GADPH (4352932E), fibronectin (Mm01256744_m1), and collagen Ia1 (Mm00801666_g1). TaqMan probe chemistry was used according to the manufacturer's instructions. qRT-PCR reactions were run in triplicate for each sample. The data was normalized to the levels of GAPDH in each sample, and the results were averaged.

[4] = tested on: C57/Bl6 mice; assay: Myocardial infarction by permanent coronary ligation; type: in vivo, mouse
Description: C57/B16 male mice (12 wks) underwent permanent coronary ligation injury. pUR4 or control peptide (III-11C or del29) was delivered (25 mg/kg/day) in randomized fashion immediately following induction of EKG-verified MI, then once daily via IP injection for 6 days. Serial, investigator-blind echocardiography for 4 weeks was followed by sacrifice; hearts were excised, weighed, and prepared for histological processing. […] FIG. 14B show the % fractional shortening (FS) in control (III-11C, n=8) and pUR4 (n=9) groups.
The therapeutic benefit of pUR4 mediated inhibition of fibronectin polymerization was investigated in a mouse model of myocardial infarction (MI). Male C57/Bl6 mice underwent permanent coronary artery ligation injury, verified at time of surgery by EKG S-T elevation. pUR4 or III-11C were administered via i.p. injection immediately following ligation. Animals subsequently received once daily IP injection for 6 days, and were followed for 4 weeks total. Serial, investigator blind echocardiography assessed cardiac function at baseline, 2 weeks, and 4 weeks.

[5] = 25 mg/kg/day IP, one week of treatment, up to 4 weeks post-MI
[6] = echocardiography post-MI, p<0.05

B1: pUR4: 49-mer peptide derived from the bacterial F1 adhesin, His tagged, SEQ ID NO:1; class I fibronectin polymerization inhibitor (peptide)
chain: MRGSHHHHHHGSKDQSPLAGESGETEYITEVYGNQQNPVDIDKKLPNETGFSGNMVETEDTKLN
modifications: His tag; Bacterial adhesin derived peptide pUR4
[1]
  deposition of endogenous collagen I into matrix fibrils: inhibited
  deposition of endogenous fibronectin into the ECM: inhibited
[2]
  binding to laminin: does not bind
[3]
  Col Ia1 mRNA, relative level: 1.42 ± 0.06
  Fibronectin mRNA, relative level: 1.43 ± 0.02
[4]; [5]
  cardiac function (% fractional shortening): preserved
  cardiac hypertrophy (heart weight to body weight ratio): reduced
[4]; 4 weeks post-MI
  fibronectin deposition within the infarcted area and remote myocardium: reduced
[4]; FIGS. 15 and 16
  collagen and fibronectin deposition post-MI: reduced
[4]; [6]
  end systolic diameter: 2.91±0.27
  end-diastolic diameter: 4.12±0.22
[4]; histology 4 weeks post-MI
  cardiac remodeling, infarct size and infarct expansion: reduction
